Data on 3 molecules can be found in PMC10370305, “Functional Degeneracy in Paracoccus denitrificans Pd1222 Is Coordinated via RamB, Which Links Expression of the Glyoxylate Cycle to Activity of the Ethylmalonyl-CoA Pathway” (Applied and Environmental Microbiology, 2023).

For assay [1], the target named is T1, RamBPd (Pden_1365) (Paracoccus denitrificans, UniProt A1B1S2).
T1 construct: purified RamBPd, His-SUMO tag cleaved off
T1 sequence (A1B1S2 1-477): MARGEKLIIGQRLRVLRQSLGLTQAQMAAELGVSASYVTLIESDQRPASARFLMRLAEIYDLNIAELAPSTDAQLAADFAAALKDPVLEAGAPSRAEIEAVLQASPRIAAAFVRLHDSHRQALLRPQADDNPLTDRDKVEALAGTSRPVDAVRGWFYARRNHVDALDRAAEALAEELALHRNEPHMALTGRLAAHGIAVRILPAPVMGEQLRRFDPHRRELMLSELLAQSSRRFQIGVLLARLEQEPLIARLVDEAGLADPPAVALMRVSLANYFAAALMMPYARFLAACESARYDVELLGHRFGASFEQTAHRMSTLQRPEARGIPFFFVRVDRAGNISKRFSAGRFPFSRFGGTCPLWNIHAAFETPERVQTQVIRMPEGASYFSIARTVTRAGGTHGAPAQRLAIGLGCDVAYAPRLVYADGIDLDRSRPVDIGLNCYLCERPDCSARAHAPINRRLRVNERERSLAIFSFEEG
Description: mass photometry titration (tetramer to dimer shift; saturation at […], […] dimer to tetramer). It is filed as binding.

Assay [2] addresses T1, RamBPd (Pden_1365). Description: mass photometry titration (tetramer to dimer shift). It counts as binding.
Assay [3] addresses RamBPd (Pden_1365), regulator of acetate metabolism of Paracoccus denitrificans Pd1222 (Paracoccus denitrificans Pd1222). Description: mass photometry; 250 nM RamBPd in PBS (pH 7.4), no supplement; Refeyn One mass photometer.
The target is the same in assay [4]. Description: mass photometry; 250 nM RamBPd in PBS (pH 7.4), pre-incubated for 35 min with rising concentrations of free CoA or of a CoA ester (ethylmalonyl-, methylsuccinyl-, mesaconyl-, crotonyl-, beta-methylmalyl-CoA); tetramer to dimers.

For the molecule `CC(C)(COP(=O)(O)OP(=O)(O)OC[C@H]1O[C@@H](n2cnc3c(N)ncnc32)[C@H](O)[C@@H]1OP(=O)(O)O)[C@@H](O)C(=O)NCCC(=O)NCCS` [CoA], the “mass photometry titration (tetramer to dimer shift); saturation at 62.5 μM, 1:1 d” value at RamBPd (Pden_1365) [1] is listed as “tetrameric RamBPd complex dissociates into a dimer upon the addition of CoA”.

The term Kd denotes the concentration at which binding is half-saturated. Consider `C[C@@H](C(=O)SCCNC(=O)CCNC(=O)[C@H](O)C(C)(C)COP(=O)(O)OP(=O)(O)OC[C@H]1O[C@@H](n2cnc3c(N)ncnc32)[C@H](O)[C@@H]1OP(=O)(O)O)[C@H](O)C(=O)O` [β-methylmalyl-CoA], for which the Kd at RamBPd (Pden_1365) [2] was around 700 µM.

By stoichiometry N is commonly meant the number of molecules, sites or subunits per partner or assembly. On to “RamBPd (Pden_1365), regulator of acetate metabolism of Paracoccus denitrificans Pd1222 (natural protein)”, for which, in assay [3], the stoichiometry N came out at 4. Further, in assay [4], the ratio of dimer to tetramer at saturation with 62.5 uM free CoA (dimer:tetramer) is 1, the ratio of dimers to tetramers with beta-methylmalyl-CoA (dimer:tetramer) stood at 9, the ratio of dimers to tetramers with crotonyl-CoA (dimer:tetramer) is 3 and the ratio of dimers to tetramers with mesaconyl-CoA (dimer:tetramer) came to 3. The molecule further came in with a stoichiometry N in assay [4] of 2.
